Literature values as cited in PMC6389863.

Columns and labels:
[1] = molecular target: Cys87 (UniProt position 87, RLGRICLDVLK)
[2] = molecular target: Cys25 (UniProt position 158, GSCGSCWAFSA)
[3] = molecular target: Asp76 (UniProt position 102, GSPGADRVVFN)
[4] = molecular target: Asp102 (UniProt position 102, LTINNDITLLK)
[5] = test system: Tyr31
[6] = molecular target: Cys25 (UniProt position 157, GSCGSCWAFSA)
[7] = molecular target: His18 (UniProt position 19, KCAQCHTVEKG)
[8] = molecular target: Asp26 (UniProt position 26, KLVVVDFSATW); conditions: reduced (active-site dithiol) thioredoxin
[9] = molecular target: Asp70 (UniProt position 70, KLFNQDVDAAV)
[10] = test system: Lys55
[11] = molecular target: Tyr149 (UniProt position 149, TPQSPYGKSKL)
[12] = molecular target: Glu73 (UniProt position 120, GRTWREADINY)
[13] = molecular target: Lys39 (UniProt position 39, EFPGGKIEMGE)
[14] = molecular target: His149 (UniProt position 177, ITFTNHVNAWK)
[15] = molecular target: His72 (UniProt position 73, GINTAHKARQV)

Ubiquitin-conjugating enzyme Ubc13 (not stated (PDB 1JBB is Saccharomyces cerevisiae Ubc13, inferred))
pKa [1]: 11.1

Papain (Carica papaya (inferred))
pKa [2]: 3.32

Ribonuclease T1 (RNase T1) (not stated (inferred Aspergillus oryzae))
pKa [3]: 0.5

Chymotrypsinogen A (bovine) (Bos taurus)
pKa [4]: 1.36

Ovomucoid third domain, silver pheasant (OMSVP3) (Lophura nycthemera (silver pheasant))
pKa [5]: 12.5

Papaya protease (PDB 1PPO; caricain / papaya protease omega) (Carica papaya (inferred))
pKa [6]: 2.88

Cytochrome c (horse) (Equus caballus)
pKa [7]: 2.5

Thioredoxin (human, reduced) (Homo sapiens)
pKa [8]: 9.9

T4 lysozyme (Enterobacteria phage T4 (inferred))
pKa [9]: 0.5

Calbindin D9k (bovine) (Bos taurus)
pKa [10]: 12.12

UDP-galactose 4-epimerase (Escherichia coli)
pKa [11]: 6.08

Barnase (not stated (inferred Bacillus amyloliquefaciens))
pKa [12]: 2.1

MutT enzyme (not stated (inferred Escherichia coli))
pKa [13]: 8.4

Xylanase (Bacillus circulans xylanase) (Bacillus circulans (from the title of ref 20))
pKa [14]: <2.3

Bovine heart phosphotyrosyl phosphatase (low molecular weight PTP) (Bos taurus)
pKa [15]: 9.19
